Among the data in the supplement of paper PMC6755084 are fraction ligated values, retold here.

To fix the notation:
B1: minF1; the commonest letter at each place (parent)
chain: GAGACCGCAACTGAAAAGTTGTTATCAGAAATGGATGGGTTGAATTTCTGCACGTAGAAGCAAAAGGC

This series covers variants of B1. In words: fraction ligated after 30 min (ligated reads / total reads); higher = more ligase activity. The following applies: with F1*subA RNA substrate (template-directed ligation), 42 °C. Put shortly:
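RNAs for minimized ligase ribozyme variants were transcribed with T7 from PCR-amplified oligo-pool templates and purified on gels. Ligated and unligated species were resolved on gels, converted to cDNA with barcoded primers, and read on a MiSeq with core bases filtered at quality ≥30. Fraction ligated per variant is the ratio of ligated reads to total reads.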
As for GAGACCGCAACTGAAAAGTTGTTATCAGTAATGGCTGGGTTGAATTTCTGCACGTAGAAGCAAAAGGC, the fraction ligated stood at 0.00991.

As to GAGACCGCAACTGAAAAGTTGTTATCAGTAATGGTTGGGTTGAATTTCTGCACGTAGAAGCAAAAGGC, the fraction ligated is 0.0234.

Consider GAGACCGCAACTGAAAAGTTGTTATCAGGAATGGATGGGTTGACTTTCTGCACGTAGAAGCAAAAGGC, for which the fraction ligated amounted to 0.649.

For GAGACCGCAACTGAAAAGTTGTTATCAGGAATGGATGGGTTGAGTTTCTGCACGTAGAAGCAAAAGGC, the fraction ligated came to 0.753.

For the variant GAGACCGCAACTGAAAAGTTGTTATCAGGAATGGATGGGTTGATTTTCTGCACGTAGAAGCAAAAGGC, the fraction ligated stood at 0.76.

With GAGACCGCAACTGAAAAGTTGTTATCAGTACTGGATGGGTTGAATTTCTGCACGTAGAAGCAAAAGGC, the fraction ligated was 0.798.

As for GAGACCGCAACTGAAAAGTTGTTATCAGTAGTGGATGGGTTGAATTTCTGCACGTAGAAGCAAAAGGC, the fraction ligated stood at 0.811.

As to GAGACCGCAACTGAAAAGTTGTTATCAGTATTGGATGGGTTGAATTTCTGCACGTAGAAGCAAAAGGC, the fraction ligated worked out at 0.828.

As for GAGACCGCAACTGAAAAGTTGTTATCAGTAATGGATGGGTTCAATTTCTGCACGTAGAAGCAAAAGGC, the fraction ligated worked out at 0.00612.

Take GAGACCGCAACTGAAAAGTTGTTATCAGTAATGGATGGGTTAAATTTCTGCACGTAGAAGCAAAAGGC: the fraction ligated stood at 0.269.

Consider GAGACCGCAACTGAAAAGTTGTTATCAGGAAGGGATGGGTTGAATTTCTGCACGTAGAAGCAAAAGGC, for which the fraction ligated came out at 0.0222.

As to GAGACCGCAACTGAAAAGTTGTTATCAGGAAAGGATGGGTTGAATTTCTGCACGTAGAAGCAAAAGGC, the fraction ligated turned out to be 0.0412.

For the variant GAGACCGCAACTGAAAAGTTGTTATCAGGAACGGATGGGTTGAATTTCTGCACGTAGAAGCAAAAGGC, the fraction ligated turned out to be 0.0215.

As for GAGACCGCAACTGAAAAGTTGTTATCAGTAATGTATGGGTTGAATTTCTGCACGTAGAAGCAAAAGGC, the fraction ligated was determined as 0.00673.

On to GAGACCGCAACTGAAAAGTTGTTATCAGTAATGCATGGGTTGAATTTCTGCACGTAGAAGCAAAAGGC, for which the fraction ligated stood at 0.00521.

For GAGACCGCAACTGAAAAGTTGTTATCAGTAATGAATGGGTTGAATTTCTGCACGTAGAAGCAAAAGGC, the fraction ligated came out at 0.0752.

Regarding GAGACCGCAACTGAAAAGTTGTTATCAGGACTGGATGGGTTGAATTTCTGCACGTAGAAGCAAAAGGC, the fraction ligated came out at 0.803.

With GAGACCGCAACTGAAAAGTTGTTATCAGGAGTGGATGGGTTGAATTTCTGCACGTAGAAGCAAAAGGC, the fraction ligated amounted to 0.795.

Regarding GAGACCGCAACTGAAAAGTTGTTATCAGGATTGGATGGGTTGAATTTCTGCACGTAGAAGCAAAAGGC, the fraction ligated came out at 0.812.

Turning to GAGACCGCAACTGAAAAGTTGTTATCAGGAATGGATGGGTTCAATTTCTGCACGTAGAAGCAAAAGGC, the fraction ligated turned out to be 0.00737.

Consider GAGACCGCAACTGAAAAGTTGTTATCAGGAATGGATGGGTTAAATTTCTGCACGTAGAAGCAAAAGGC, for which the fraction ligated was 0.28.

For the variant GAGACCGCAACTGAAAAGTTGTTATCAGGAATGGATGGGTTTAATTTCTGCACGTAGAAGCAAAAGGC, the fraction ligated turned out to be 0.096.

With GAGACCGCAACTGAAAAGTTGTTATCAGCAATGCATGGGTTGAATTTCTGCACGTAGAAGCAAAAGGC, the fraction ligated was determined as 0.00225.

Regarding GAGACCGCAACTGAAAAGTTGTTATCAGCAATGTATGGGTTGAATTTCTGCACGTAGAAGCAAAAGGC, the fraction ligated worked out at 0.00671.

As for GAGACCGCAACTGAAAAGTTGTTATCAGCAATGAATGGGTTGAATTTCTGCACGTAGAAGCAAAAGGC, the fraction ligated was 0.042.

As for GAGACCGCAACTGAAAAGTTGTTATCAGGCATGGATGGGTTGAATTTCTGCACGTAGAAGCAAAAGGC, the fraction ligated amounted to 0.84.

For GAGACCGCAACTGAAAAGTTGTTATCAGGTATGGATGGGTTGAATTTCTGCACGTAGAAGCAAAAGGC, the fraction ligated was 0.817.

As to GAGACCGCAACTGAAAAGTTGTTATCAGGGATGGATGGGTTGAATTTCTGCACGTAGAAGCAAAAGGC, the fraction ligated turned out to be 0.811.

Turning to GAGACCGCAACTGAAAAGTTGTTATCAGCAAAGGATGGGTTGAATTTCTGCACGTAGAAGCAAAAGGC, the fraction ligated amounted to 0.0419.

With GAGACCGCAACTGAAAAGTTGTTATCAGCAACGGATGGGTTGAATTTCTGCACGTAGAAGCAAAAGGC, the fraction ligated worked out at 0.0191.

As to GAGACCGCAACTGAAAAGTTGTTATCAGCAAGGGATGGGTTGAATTTCTGCACGTAGAAGCAAAAGGC, the fraction ligated turned out to be 0.0113.

Consider GAGACCGCAACTGAAAAGTTGTTATCAGGAATGGATGGGTTGCATTTCTGCACGTAGAAGCAAAAGGC, for which the fraction ligated was found to be 0.0987.

Take GAGACCGCAACTGAAAAGTTGTTATCAGGAATGGATGGGTTGTATTTCTGCACGTAGAAGCAAAAGGC: the fraction ligated turned out to be 0.0936.

On to GAGACCGCAACTGAAAAGTTGTTATCAGGAATGGATGGGTTGGATTTCTGCACGTAGAAGCAAAAGGC, for which the fraction ligated turned out to be 0.0803.

In the case of GAGACCGCAACTGAAAAGTTGTTATCAGCAATGGATCGGTTGAATTTCTGCACGTAGAAGCAAAAGGC, the fraction ligated was 0.00528.

On to GAGACCGCAACTGAAAAGTTGTTATCAGCAATGGATAGGTTGAATTTCTGCACGTAGAAGCAAAAGGC, for which the fraction ligated was found to be 0.00482.

In the case of GAGACCGCAACTGAAAAGTTGTTATCAGCAATGGATTGGTTGAATTTCTGCACGTAGAAGCAAAAGGC, the fraction ligated amounted to 0.0129.

For GAGACCGCAACTGAAAAGTTGTTATCAGGAATGGATCGGTTGAATTTCTGCACGTAGAAGCAAAAGGC, the fraction ligated was 0.0058.

For GAGACCGCAACTGAAAAGTTGTTATCAGGAATGGATAGGTTGAATTTCTGCACGTAGAAGCAAAAGGC, the fraction ligated was 0.0118.

On to GAGACCGCAACTGAAAAGTTGTTATCAGGAATGGATTGGTTGAATTTCTGCACGTAGAAGCAAAAGGC, for which the fraction ligated was found to be 0.0206.
